# The nanobody polyreactivity screen of Harvey et al. (2022)
# Experiment: yeast display, Sf9 membrane polyspecificity reagent, FACS + sequencing; frameworks hold sequencing errors
# In short: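 In a synthetic yeast display library (Saccharomyces cerevisiae BJ5465), nanobody expression was induced with galactose for 36–48 hours. FACS gates were set low and high (top ~1%) using anti-HA fluorescence for expression and streptavidin fluorescence for binding of the Sf9 membrane reagent. Each polyreactivity label is drawn from the gate of origin.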
row,Sequence,polyreactivity (PSR sort gate)
1,QVQLVESGGGLVQAGGSLRLSCAASGRIFRRNAMGWYRQAPGKEREFVAAISYRGGSTYYADSVKGRFTISRDNAKNTVYLQMNSLKPEDTAVYYCAATGYGSAYNPYDHWGQGTQVTVSS,high polyreactivity
2,QVQLVESGGGLVQAGGSLRLSCAASGRIFRRNAMGWYRQAPGKERELVAAISSSGGRTYYADSVKGRFTISRDNAKNTVYLQMNSLKPEDTAVYYCATRESLEPGYYWGQGTQVTVSS,high polyreactivity
3,QVQLVESGGGLVQAGGSLRLSCAASGRIFRRYAMGWYREAPGKERELVAAITASGGITYYADSVKGRFTISRDNAKNTVYLQMNSLKPEDTAVYYCAARGSSGYDYWGQGTQVTVSS,high polyreactivity
4,QVQLVESGGGLVQAGGSLRLSCAASGRIFRRYAMGWYRQAPGKERELVAAISTRGGSTYYADSVKGRFTISRDNAKNTVYLPMNSLKPEDTAVYYCAAGRDPGYNNDDYWGQGTQVTVSS,high polyreactivity
5,QVQLVESGGGLVQAGGSLRLSCAASGRIFRRYAMGWYRQAPGKERELVADITYGVDSTYYADSVKGRFTISRDNAKNTVYLQMNSLKPEDTAVYYCNADRTEDLLYRFVGVTYGYWGQGTQVSVSS,high polyreactivity
6,QVQLVESGGGLVQAGGSLRLSCAASGRIFRRYAMGWYRQAPWKERELVAAISTSGVRTYYADSVKGRFTISRDNAKNTVYLQMNSLNPEDTAVYYCATVAGPPYDYWGQGTLVTVSS,high polyreactivity
7,QVQLVESGGGLVQAGGSLRLSCAASGRIFRSNAMGWYRQAPGKERELLAAISGSGSTTNYADSVKGRITISRDNAKNTVYLQMNSLKPEDTAVYYCATGKRGVSGRGFRYDYWGLGTQVTVSS,high polyreactivity
8,QVQLVESGGGLVQAGGSLRLSCAASGRIFRSNAMGWYRQAPRKERELVPAITSSDTSTYYADSVKGRFTISRDNAKNTVYLQMKSLKPEDTAVYYCAADFKPTGTNEPKELDYWGQGTQVTVSS,low polyreactivity
9,QVQLVESGGGLVQAGGSLRLSCAASGRIFRSNARGWYRPAPGKERELVAAISSNGGSTYYADSVKGRFTISRDNAKNTVYLQMNSLKPEDTAVYYCAARVYYPVRYGYWGQGTQVTVSS,high polyreactivity
10,QVQLVESGGGLVQAGGSLRLSCAASGRIFRSYTMGWYRQAPGKERELVAAISKTGSRTYYADSVKGRFTISRDNAKNTVYLQMNSLKPEDTAVYYCAALFVHSYRDDYWGQGTQVTVSS,high polyreactivity
11,QVQLVESGGGLVQAGGSLRLSCAASGRIFRTYAMGWYRQAPGKERELVAAISGRGGNTYYADSVKGRFTSSRDNAKNTVYLQMNSLKPEETAVYYCAASKPARDTQQRWVYAGYDYWGQGTQVTVSS,high polyreactivity
12,QVQLVESGGGLVQAGGSLRLSCAASGRIFRTYAMGWYRQAPGKERELVAAISYSGGSTFYADSVKGRFTISRDNAKNSVYLQMNSLKPESTAVYYCAADSRAKRYYWGQGTQVTVSS,high polyreactivity
13,QVQLVESGGGLVQAGGSLRLSCAASGRIFRVNSMGWYRQAPGKEREFVAAITKNGGSTYYADSVKGRFTISLDNANNTVYLQMNSLKPEDTAVYYCAVRAWDPYTGKCVYWGQGTQVTVSW,low polyreactivity
14,QVQLVESGGGLVQAGGSLRLSCAASGRIFRVYAMGWYRQAPGKERELVAAITSGGTTYADSVKGRFTISRDYAKNTVYLQMNSLKPEDTAVYYCAARYYIHRGYDYDYWGQGTQVTVSS,high polyreactivity
15,QVQLVESGGGLVQAGGSLRLSCAASGRIFRVYAMGWYRQAPGKERQLVAAISYSGGRTFYADSVKGRFTISRDNSKNTVYLQMNSLIPEDTAVYYCAAKSYYTQALPPLDYWGQCTQVTVSS,low polyreactivity
16,QVQLVESGGGLVQAGGSLRLSCAASGRIFRWNAMGWYRQAPGKERDLVAAISWRGANTYYADSVKGRFTISRDNAKNTVYLQMNSLKPEDTAVYYCARYSYRGSQSDSWGQGTQVTVSS,high polyreactivity
17,QVQLVESGGGLVQAGGSLRLSCAASGRIFRWYAMGWYRQAPGKERELVAAISSRGGSTYYADSVKGRFTISRDNAKNTVYLQMNSLKPEDTAVYYCAADTSGWQPRYDYWGQGTQVTVSS,high polyreactivity
18,QVQLVESGGGLVQAGGSLRLSCAASGRIFRWYAMGWYRQAPGKERELVAAISSSGGSTYYADSVKGRFTISRDNAKINVYLQMKSLKPEDTAVYYCNAEAVAYWSVPYNYWGQGTQVTVSS,high polyreactivity
19,QVQLVESGGGLVQAGGSLRLSCAASGRIFRWYAMGWYRQAPGKERELVAAITQGGGSTYYADSVKGRFTISRDNAKNTVYLQMNSLKPEDTAVYYCAARGRSVGSAGTSRYGYWGQGTQVTVSS,high polyreactivity
20,QVQLVESGGGLVQAGGSLRLSCAASGRIFRWYTMGWYRQAPGKERELVARISSGGITYYADSVKGPFTISRDNAKNTVYLQMNSLKPEDTAVYYCNTYVSRNFDYWGQGTQLTVSS,high polyreactivity
21,QVQLVESGGGLVQAGGSLRLSCAASGRIFRYNAKGWYRQAPGKERELVAAISRDGSTYYADSVKGRFTISRDNAKNTVYLQMKSLKPEDTAVYYCAAGYSRRGWRRAYNYWGQGTQVTVSS,high polyreactivity
22,QVQLVESGGGLVQAGGSLRLSCAASGRIFRYNAMGLYRQAPGKERELVAVITSRGGRTYYADSVKGRFTISRDNAKNTVYLQMNSLKPEDTAVYYCTAKRYRYYRWYFTGKYDYWGQGTQVTVSS,high polyreactivity

row,Sequence,polyreactivity (PSR sort gate)
1,QVQLVESGGGLVQAGGSLRLSCAASGRIFRYNAMGWYRQAPGKERELVAAISTRGGNTYYADSVKGRFTISRDNAKNTVYLQMNSLKPEDTAVYYCNARSSLPYNYWGQGTQVTVSS,high polyreactivity
2,QVQLVESGGGLVQAGGSLRLSCAASGRIFRYNAMGWYRQAPGKERELVAAISWSGGSTYADSVKGRFTISRDNAKNTVYLQMNSLKPEDTAVYFCAADSSDLYVWGYDHGGQGTQVTVSS,low polyreactivity
3,QVQLVESGGGLVQAGGSLRLSCAASGRIFRYNAMGWYRQAPGKERELVAAITKGGGSTYYADSVKGRFTISRDNAKNTVYLQMTSLNPEDTGVYYCAARRAVYRGNYWGQGTKVTVSS,high polyreactivity
4,QVQLVESGGGLVQAGGSLRLSCAASGRIFRYNAMGWYRQAPGKERELVASINQRGGYTYYADSVKGRFTISRDNAKNTVYLQMNSLKPEDTAVYYCAADRPRGRETVYYWGQGTQVTVSS,high polyreactivity
5,QVQLVESGGGLVQAGGSLRLSCAASGRIFRYNAMGWYRQAPGKERELVASISSSGGSTYYADSVKGRFTISRDTAKNTVYLQMNCLKPEDTAVYYCSAYPGDRHSRINLGYWGQGTQVTVSS,high polyreactivity
6,QVQLVESGGGLVQAGGSLRLSCAASGRIFRYNAMGWYRQAPGKERELVATITSGGNTNYADSVKGRFTISRDNAKNTVYLQMISLKPEDTAVYYCNAAEPQWYDAYDYWGQGTQVTVSS,low polyreactivity
7,QVQLVESGGGLVQAGGSLRLSCAASGRIFRYNAMGWYRQAPGKEWELVAAIRFSGGSTYYADSVKGRFTLSRDNAKNTVYLHMNSLKPEDTAVYYCAKVYFRVQSGMDYWGQGTQVTVST,low polyreactivity
8,QVQLVESGGGLVQAGGSLRLSCAASGRIFRYNTLGWYRQAPGKERELVAAINSSGGRTYYADSVKGRFTISRDNAKNTVYLQMNSLKPEDTAVYYCAAVIYVLSGPGYDYWGQGTQVTVSS,high polyreactivity
9,QVQLVESGGGLVQAGGSLRLSCAASGRIFRYNTMGWYRQAPGKERELVADINSGGSTYADSVKGRFTISRDNAKNTVYLQMNSLKPEDTAVYYCNADSGLRAGYYYGYDYWGQGTQVTVSS,low polyreactivity
10,QVQLVESGGGLVQAGGSLRLSCAASGRIFRYNTMGWYRQAPGKERELVADITSSDSSTYYADSVKGRFTISRDNAKNTVYLQMNSLKPEDTAVYYCAARDSGYGWRYYYWGQGTQVTVSS,low polyreactivity
11,QVQLVESGGGLVQAGGSLRLSCAASGRIFRYNVMGWYRQAPGKERELVAAITSRGGSTYYADSVKGRFTISRDNAKNTVYLQMNSLKPEDTAVYYCAAYPWEFGTYNYWGQGTQVTVSS,high polyreactivity
12,QVQLVESGGGLVQAGGSLRLSCAASGRIFRYYAKGWYRQAPGKERELVARIRWSGGSTYYADSVKGRFTISRDNAKNTVYLQMNSLKPEDTAVYYCNAGSWSYRYNYWGQGTQVTVSS,high polyreactivity
13,QVQLVESGGGLVQAGGSLRLSCAASGRIFRYYAMGWYRQAAGKERELVAAISYSGGRTYYADSVKGRFTISRDNAKNTVYVQMNSLKPEDTAVYYCASVWHSQSSYVPFDSWGQGTQVTVSS,high polyreactivity
14,QVQLVESGGGLVQAGGSLRLSCAASGRIFRYYAMGWYRQAPAKERELVASISRRGGSTNYADSVKGRFTISRDNAKNTVYLQMNSLKPEDTAVYYCNAENWSPRGLYNYWGQGTQVTVSS,high polyreactivity
15,QVQLVESGGGLVQAGGSLRLSCAASGRIFRYYAMGWYRQAPGKERELVAAIRWTAGSTYYADSVKGRFTISRDIAKNTVYLQMNSLKPEDTAVYYCATDVWKYGRYEYWGQGTQVTVSS,low polyreactivity
16,QVQLVESGGGLVQAGGSLRLSCAASGRIFRYYAMGWYRQAPGKERELVAAISRRGSSTYYADSVKGRFTISRDNAKNTVYLQMNSLKPEDTAVYYCSAKRQVYQSESTYEYWGQGTQVTVSS,high polyreactivity
17,QVQLVESGGGLVQAGGSLRLSCAASGRIFRYYAMGWYRQAPGKERELVAAISVSGGSTYYADSVKGRFTISRDNAKNTVYLKMNSLKPEDTAVYYCAARIKTYSKRYYWGQATQVTVSS,high polyreactivity
18,QVQLVESGGGLVQAGGSLRLSCAASGRIFRYYAMGWYRQAPGKERELVAAISWSGGRTYYADSVKGRFTISRDNAKNSVYLQMNSLIPEDTAVFYCYAGYLYPGYFVREYDYWGQGTQVTVSS,high polyreactivity
19,QVQLVESGGGLVQAGGSLRLSCAASGRIFRYYAMGWYRQAPGKERELVAAITAGGGTTYYADSVKGRFTISRDNAKNTVYLQMNSLKPEDTAVYYWAKDGRYYSHYNYWGQGTQVTVSS,high polyreactivity
20,QVQLVESGGGLVQAGGSLRLSCAASGRIFRYYAMGWYRQAPGKERELVASSTYYADSVKGRFTISRDNAKNTVYLQMNSLKPEDTAVYYCAAVKGTRGWYDYWGQGTQVTVSS,high polyreactivity
21,QVQLVESGGGLVQAGGSLRLSCAASGRIFRYYAMGWYRQATGKQRELVAAISSGVGNTYYADSVKGRFTISRDNAKNTVYLQMNSLKPEDTAVYYCNAKWRKFGTVRYDYWGQGTQVTVSS,high polyreactivity
